Results from publication PMC2974046.

Legend:
Experiment in all cases: purified protein
[1] = system: NC(=O)[C@@H]1O[C@H]1C(=O)NC[C@H](N)C(=O)O; details: 5 mM L-valine, 10 mM ATP, 12 mM MgCl2, HEPES pH 8, room temperature
[2] = system: NC(=O)/C=C/C(=O)NC[C@H](N)C(=O)O; details: 5 mM L-valine, 10 mM ATP, 12 mM MgCl2, HEPES pH 8, room temperature
[3] = system: NC(=O)/C=C/C(=O)NC[C@H](N)C(=O)O; format: biochemical, Pantoea agglomerans; details: adenylation (A) domain, ATP, Mg2+, pH 7.5, room temperature

Row | Substance | Km [1] | kcat [1] | kcat/Km [1] | Km [2] | kcat [2] | kcat/Km [2] | Km [3] | kcat [3]
1 | DdaF (Pantoea agglomerans) | 53 ± 7 µM | 3.02 ± 0.117 s⁻¹ | 56700 M⁻¹ s⁻¹ | 72 ± 34 µM | 0.35 ± 0.05 s⁻¹ | 4830 M⁻¹ s⁻¹ |  | 
2 | DdaD (Pantoea agglomerans) |  |  |  |  |  |  | 420 ± 80 µM | 1.07 ± 0.083 s⁻¹
